According to patent US20230134571A1 (INTERNATIONAL AIDS VACCINE INITIATIVE, published 2023):

Legend:
Assay in all cases: cell-based or functional assay
[1] = molecular target: HIV Env, isolate CT184_D3.15 (HIV)
[2] = molecular target: HIV Env, isolate CeCAP188_1_D1_14(Rev-) (HIV)
HIV Env, isolate 2969249 = HIV Env, isolate 2969249 (HIV)
[3] = molecular target: HIV Env, isolate SO032_A2.8-1 (HIV)
[4] = molecular target: HIV Env, isolate 705010185 (HIV)
[5] = molecular target: HIV Env, isolate CAP69.1.12_TA7.1 (HIV)
[6] = molecular target: HIV Env, isolate CeCAP200_B8a (HIV)
[7] = molecular target: HIV Env, isolate 3312_D6.2 (HIV)
[8] = molecular target: HIV Env, isolate ZM249M.PL1 (HIV)
[9] = molecular target: HIV Env, isolate 20358510.01 (HIV)
[10] = molecular target: HIV Env, isolate 19314479_A2_5 (HIV)
[11] = molecular target: HIV Env, isolate CT810_G4-7 (HIV)
[12] = molecular target: HIV Env, isolate 6980.v0.c31 (HIV)
[13] = molecular target: HIV Env, isolate 21197826_V1 (HIV)
[14] = molecular target: HIV Env, isolate 235080_3G7env2(Rev-) (HIV)
[15] = molecular target: HIV Env, isolate 7060101641A7(Rev-) (HIV)
[16] = molecular target: HIV Env, isolate ZM135M.PL10a (HIV)
[17] = molecular target: HIV Env, isolate 556_F2_3_25 (HIV)
HIV Env, isolate 3514597 = HIV Env, isolate 3514597 (HIV)
[18] = molecular target: HIV Env, isolate CAP225.1.06_A2_18 (HIV)
[19] = molecular target: HIV Env, isolate 21203310_G7_C3 (HIV)
[20] = molecular target: HIV Env, isolate CT565_C7.48 (HIV)
[21] = molecular target: HIV Env, isolate CAP291.2.00_H2.15 (HIV)
[22] = molecular target: HIV Env, isolate CAP45.2.00.G3 (HIV)
[23] = molecular target: HIV Env, isolate 20965238 (HIV)
[24] = molecular target: HIV Env, isolate 0041.v3.c18 (HIV)
[25] = molecular target: HIV Env, isolate 21492713_B11_E3 (HIV)
[26] = molecular target: HIV Env, isolate CT072_56_7 (HIV)
[27] = molecular target: HIV Env, isolate TRP307.2.00_24_1 (HIV)
[28] = molecular target: HIV Env, isolate CAP308.2.00_E11.35 (HIV)
[29] = molecular target: HIV Env, isolate 1170887.08 (HIV)
[30] = molecular target: HIV Env, isolate 3603_C11.13 (HIV)
[31] = molecular target: HIV Env, isolate 21561324_D3_B5 (HIV)
[32] = molecular target: HIV Env, isolate 2768732_C5_16 (HIV)
[33] = molecular target: HIV Env, isolate 2865_A11.12 (HIV)
[34] = molecular target: HIV Env, isolate CH064.env (HIV)

B1: ePGDM9 (antibody, V domains shown)
VH: QAQLVQSGPEVRKPGTSVKVSCKNPGNTLTTYDLHWVRQVPGQGLQWMGWISHEGDKKVIVERFKAKVTIDWDRSTNTAYLQLSGLTSEDTAVYYCAKGSKHRLRDYALYDEDGALNWAVDVDYLANLEFWGQGTAVTVSS
VL: DIVLTQSPLSLSVTPGESASISCKSSQSLIHGDRNNYLAWYVQKPGRSPQLLIDLASERASGVPDRFSGSGSRKDFTLKISRVETEDVGTYYCMQGRESPWTFGQGTKVDIK
- IC50 [1]: < 0.0006 µg/mL
- IC80 [1]: 0.002 µg/mL
- IC50 [2]: > 50 µg/mL
- IC80 [2]: > 50 µg/mL
- IC50 (HIV Env, isolate 2969249): > 50 µg/mL
- IC80 (HIV Env, isolate 2969249): > 50 µg/mL
- IC50 [3]: > 50 µg/mL
- IC80 [3]: > 50 µg/mL
- IC50 [4]: 0.706 µg/mL
- IC80 [4]: 2.15 µg/mL
- IC50 [5]: 0.01 µg/mL
- IC80 [5]: 0.039 µg/mL
- IC50 [6]: 0.003 µg/mL
- IC80 [6]: 0.022 µg/mL
- IC50 [7]: 0.004 µg/mL
- IC80 [7]: 0.011 µg/mL
- IC50 [8]: 0.004 µg/mL
- IC80 [8]: 0.05 µg/mL
- IC50 [9]: 0.004 µg/mL
- IC80 [9]: 0.017 µg/mL
- IC50 [10]: < 0.0006 µg/mL
- IC80 [10]: 0.001 µg/mL
- IC50 [11]: 0.087 µg/mL
- IC80 [11]: 5.53 µg/mL
- IC50 [12]: < 0.0006 µg/mL
- IC80 [12]: 0.006 µg/mL
- IC50 [13]: 12.7 µg/mL
- IC80 [13]: 34.6 µg/mL
- IC50 [14]: 0.002 µg/mL
- IC80 [14]: 0.005 µg/mL
- IC50 [15]: 0.002 µg/mL
- IC80 [15]: 0.013 µg/mL
- IC50 [16]: > 50 µg/mL
- IC80 [16]: > 50 µg/mL
- IC50 [17]: > 50 µg/mL
- IC80 [17]: > 50 µg/mL
- IC50 (HIV Env, isolate 3514597): 0.003 µg/mL
- IC80 (HIV Env, isolate 3514597): 0.011 µg/mL
- IC50 [18]: 0.025 µg/mL
- IC80 [18]: 0.167 µg/mL
- IC50 [19]: 9.94 µg/mL
- IC80 [19]: > 50 µg/mL
- IC50 [20]: < 0.0006 µg/mL
- IC80 [20]: 0.086 µg/mL
- IC50 [21]: 0.342 µg/mL
- IC80 [21]: 1.1 µg/mL
- IC50 [22]: < 0.0006 µg/mL
- IC80 [22]: < 0.0006 µg/mL
- IC50 [23]: > 50 µg/mL
- IC80 [23]: > 50 µg/mL
- IC50 [24]: < 0.0006 µg/mL
- IC80 [24]: 0.001 µg/mL
- IC50 [25]: > 50 µg/mL
- IC80 [25]: > 50 µg/mL
- IC50 [26]: 0.002 µg/mL
- IC80 [26]: 1.23 µg/mL
- IC50 [27]: > 50 µg/mL
- IC80 [27]: > 50 µg/mL
- IC50 [28]: 0.001 µg/mL
- IC80 [28]: 0.004 µg/mL
- IC50 [29]: 0.008 µg/mL
- IC80 [29]: 0.056 µg/mL
- IC50 [30]: 0.654 µg/mL
- IC80 [30]: 2.17 µg/mL
- IC50 [31]: 0.004 µg/mL
- IC80 [31]: 0.038 µg/mL
- IC50 [32]: 0.016 µg/mL
- IC80 [32]: 0.114 µg/mL
- IC50 [33]: 0.071 µg/mL
- IC80 [33]: 0.258 µg/mL
- IC50 [34]: 0.333 µg/mL
- IC80 [34]: 1.62 µg/mL
